Experimental findings from patent US20240270866A1 (Alector, published 2024) are described below.

Assay [1] deals with T1, human SIRPβ1 Fc fusion antigen (human, UniProt O00241 30-371).
T1 construct: not shown: human IgG1 Fc
Briefly: ForteBio IgG avid.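 Note: ForteBio sensor-based avid binding of anti-SIRPA antibodies in IgG format, with the binding partner in solution at 100 nM.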 A general note: Biolayer interferometry detects binding as a change in optical thickness at a sensor tip.

Assay [2] concerns the target T2, human SIRPA Fc fusion antigen (human, UniProt P78324 31-373).
T2 construct: heterologous signal peptide; not shown: human IgG1 Fc
Kind of assay: ForteBio IgG avid.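 Note: ForteBio sensor-based avid binding of anti-SIRPA antibodies in IgG format, with the binding partner in solution at 100 nM.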

T1 sequence (O00241 30-371 limits assumed): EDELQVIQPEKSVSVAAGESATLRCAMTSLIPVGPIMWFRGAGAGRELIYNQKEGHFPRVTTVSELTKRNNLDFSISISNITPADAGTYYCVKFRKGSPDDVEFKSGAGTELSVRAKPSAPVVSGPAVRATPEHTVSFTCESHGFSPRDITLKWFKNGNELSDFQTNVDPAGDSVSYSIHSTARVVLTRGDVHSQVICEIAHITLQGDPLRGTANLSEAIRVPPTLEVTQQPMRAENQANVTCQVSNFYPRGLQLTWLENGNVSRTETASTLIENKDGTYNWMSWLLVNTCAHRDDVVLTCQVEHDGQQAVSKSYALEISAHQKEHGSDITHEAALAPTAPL

B1: SA-5-61 (antibody, V domains shown)
VH: EVQLLESGGGLVQPGGSLKLSCAASGFTFDSYAMSWVRQAPGKGLEWVSAISGSGGSTYYADSVKGRFTISRDNSKNTLYLQMNSLRAEDTAVYYCAKDTGIDFWGQYPPYFDLWGRGTLVTVSS
VL: DIQLTQSPSSVSASVGDRVTITCRASQDISSWLAWYQQKPGKAPKLLIYAASSLQSGVPSRFSGSGSGTDFTLTISSLQPEDFATYYCQQGYIFPRTFGGGTKVEIK
notes: IgG
By Kd is commonly meant the constant that tells how readily two partners part at equilibrium. Higher therefore signals weaker binding. Regarding B1, the Kd in assay [1] amounted to 9.31 nM; in assay [2] it was 2.3 nM.

B2: SA-56-86 (antibody, V domains shown)
VH: QVQLVESGGGVVQPGGSLRLSCAASGFTFSYYGMSWVRQAPGKGLEWVASIWVDGSSKYYADSVKGRFTISRDNSKNTLYLQMNSLRAEDTAVYYCARGVETYSGPNWFDPWGQGTLVTVSS
VL: DIQMTQSPSSVSASVGDRVTITCRASQGISSWLAWYQQKPGKAPKLLIYAASSLQSGVPSRFSGSGSGTDFTLTISSLQPEDFATYYCQQAIYFPITFGGGTKVEIK
notes: IgG
Consider B2, for which the figures for the Kd in assay [1] and in assay [2] were 12.4 nM and 0.339 nM, respectively.

B3: SA-13-68 (antibody, V domains shown)
VH: EVQLLESGGGLVQPGGSLRLSCAASGFTFTEYAMSWVRQAPGKRLEWVSAISGSGGSTYYADSVKGRFTISRDNSKNTLYLQMSSLRAEDTAVYYCARDNIQWGPHFYWGQGTLVTVSS
VL: DIQMTQSPSSLSASVGDRVTITCRASQSISSYLNWYQQKPGKAPKLLIYAASSLQSGVPSRFSGSGSGTDFTLTISSLQPEDFATYYCQQGYIYPPTFGGGTKVEIK
notes: IgG
With B3, the values for the Kd in assay [1] and in assay [2] were 3.45 nM and 1.92 nM, respectively.

B4: SA-56-87 (antibody, V domains shown)
VH: EVQLVESGGGVVQPGRSLRLSCAASGFTFSYYGMSWVRQAPGKGLEWVASIWVDGSNKYYADSVKGRFTISRDNSKNTLYLQMNSLRAEDTAVYYCAFGLETYSGPNWFDPWGQGTLVTVSS
VL: DIQMTQSPSSVSASVGDRVTITCRASQGISSWLAWYQQKPGKAPKLLIYAASSLQSGVPSRFSGSGSGTDFTLTISSLQPEDFATYYCQQAIYFPITFGGGTKVEIK
notes: IgG
Turning to B4, the binding result in assay [1] is reported as “no binding (tested: 100 nM)”. Moreover, the Kd in assay [2] worked out at 0.396 nM.

B5: SA-56-89 (antibody, V domains shown)
VH: EVQLVESGGGVVQPGGSLRLSCAASGFTFSYYGMSWVRQAPGKGLEWVASIWVDGSNKYYADSVKGRFTVSRDNSKNTLYLQMDSLRAEDTAVYYCARGVETYSGPNWFDPWGQGTLVTVSS
VL: DIQMTQSPSSVSASVGDRVTITCRASQGISSWLAWYQQKPGKAPKLLIYAASSLQSGVPSRFSGSGSGTDFTLTISSLQPEDFATYYCQQAIYFPITFGGGTKVEIK
notes: IgG; also called SA-89
As to B5, in assay [1], the binding result is “no binding (tested: 100 nM)”. For the same molecule, binding in assay [2] was put at a Kd of 0.415 nM.

B6: SA-56-88 (antibody, V domains shown)
VH: EVQLVESGGGVVQPGRSLRLSCAASGFTFSYYGMSWVRQAPGKGLEWVASIWVDGSNKYYADSAKGRFTISRDNSKNTLYLQMNSLRAEDTAVYYCAEGKETYSGPNWFDPWGQGTLVTVSS
VL: DIQMTQSPSSVSASVGDRVTITCRASQGISSWLAWYQQKPGKAPKLLIYAASSLQSGVPSRFSGSGSGTDFTLTISSLQPEDFATYYCQQAIYFPITFGGGTKVEIK
notes: IgG
With B6, in assay [1], the binding result is “no binding (tested: 100 nM)”. The molecule also gave a Kd in assay [2] of 0.379 nM.

B7: SA-5-59 (antibody, V domains shown)
VH: EVQLLESGGGLVQPGGSLRLSCAASGFTFDNYAMSWVRQAPGEGLEWVSAVSGSGGSTYYADSVRGRFTISRDNSKNTLYLQMDSLRAEDTAVYYCAKDTGIDFWARTPPYFDLWGRGTLVTVSS
VL: DIQLTQSPSSVSASVGDRVTITCRASQDISSWLAWYQQKPGKAPKLLIYAASSLQSGVPSRFSGSGSGTDFTLTISSLQPEDFATYYCQQGYIFPRTFGGGTKVEIK
notes: IgG
For B7, in assay [1], the binding result is “no binding (tested: 100 nM)”. For the same molecule, binding in assay [2] was put at a Kd of 3.03 nM.

B8: SA-5-58 (antibody, V domains shown)
VH: EVQLLESGGGLVQPGGSLRLSCAASGFTFDSYAMSWVRQAPGKGLEWVSAISGSGGSTYHADSVKGRFTISRDNSKNTLYLQMNSLRAEDTAVYYCAKDTGISLWSVTPPYFDLWGRGTLVTVSS
VL: DIQLTQSPSSVSASVGDRVTITCRASQDISSWLAWYQQKPGKAPKLLIYAASSLQSGVPSRFSGSGSGTDFTLTISSLQPEDFATYYCQQGYIFPRTFGGGTKVEIK
notes: IgG
On to B8, for which the binding result in assay [1] is “no binding (tested: 100 nM)”. Further, the Kd in assay [2] came to 2.78 nM.

B9: SA-5-57 (antibody, V domains shown)
VH: EVQLLESGGGLVQPGGSLRLSCAASGFTFDSYAMSWVRQAPGKGLEWVSATSGGGGSTYHADPVKGRFTISRDNSKNTLYLQMNSLRAEDTAVYYCAKDITDDFWSVTPPYFDLWGRGTLVTVSS
VL: DIQLTQSPSSVSASVGDRVTITCRASQDISSWLAWYQQKPGKAPKLLIYAASSLQSGVPSRFSGSGSGTDFTLTISSLQPEDFATYYCQQGYIFPRTFGGGTKVEIK
notes: IgG
As to B9, the binding result in assay [1] is “no binding (tested: 100 nM)”. In assay [2], this molecule came in with a Kd of 2.61 nM.

B10: SA-56-85 (antibody, V domains shown)
VH: EVQLLESGGGVVQPGRSLGLSCAASGSTFSYYGMSWVRQAPGKGLEWVASIWVDGSNKYYADSVKGRFTISRDNSKSTLYLQMNSLRAEDTAVYYCARGVETYSGPNWFDPWGQGTLVTVSS
VL: DIQMTQSPSSVSASVGDRVTITCRASQGISSWLAWYQQKPGKAPKLLIYAASSLQSGVPSRFSGSGSGTDFTLTISSLQPEDFATYYCQQAIYFPITFGGGTKVENQ
notes: IgG; also called SA-85
With B10, the binding result in assay [1] is listed as “no binding (tested: 100 nM)”. Further, binding in assay [2] was characterised by a dissociation constant (Kd) of 0.341 nM.

B11: SA-19-84 (antibody, V domains shown)
VH: QVQLVESGGGVVQPGRSLRLSCAASGFTFSSYGMHWVRQAPGKGLEWVAVIAYDGSNKLYADSVKGRFTISRDNSKNTLYLQMNSLRAEDTAVYYCARTQLKYTLGFAFDIWGQGTMVTVSS
VL: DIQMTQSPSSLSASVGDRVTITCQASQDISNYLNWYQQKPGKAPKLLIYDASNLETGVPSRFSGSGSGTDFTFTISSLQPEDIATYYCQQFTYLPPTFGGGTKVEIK
notes: IgG
On to B11, for which the results for the Kd in assay [1] and in assay [2] were 2.6 nM and 0.573 nM, respectively.

B12: SA-8-66 (antibody, V domains shown)
VH: QVQLVESGGGVVQPGRSLRLSCAASGFTFSSYGMHWVRQAPGKGLEWVAVINGDGSNKYYADSVKGRFTISRDNSKNTLYLQMNSLRAEDTAVYYCAKEPRSYWHGYGMDVWGQGTTVTVSS
VL: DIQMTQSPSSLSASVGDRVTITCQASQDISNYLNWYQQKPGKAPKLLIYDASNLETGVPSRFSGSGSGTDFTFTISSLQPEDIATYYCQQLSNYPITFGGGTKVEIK
notes: IgG
For the molecule B12, the results for the Kd in assay [1] and in assay [2] were 13.1 nM and 2.14 nM, respectively.

B13: SA-8-62 (antibody, V domains shown)
VH: QVQLVESGGGLVKPGGSLRLSCAASGFTFSSYSMHWVRQAPGKGLEWVSSISSSDSWIYYADSVKGRFTISRDNAKNSLYLQMDSLRAEDTAVYYCAKERVDYWHGYGMDVWGQGTTVTVSS
VL: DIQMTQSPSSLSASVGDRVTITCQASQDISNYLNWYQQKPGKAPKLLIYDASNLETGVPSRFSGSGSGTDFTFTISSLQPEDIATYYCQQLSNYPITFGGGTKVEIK
notes: IgG
Turning to B13, the results for the Kd in assay [1] and in assay [2] were 4.67 nM and 0.371 nM, respectively.

B14: SA-8-64 (antibody, V domains shown)
VH: QVQLVESGGGLVKPGGSLRLSCAASGFTFSSYSMHWVRQAPGKGLEWVSSISSSDSWIYYADSVKGRFTISRDNAKNSLYLQMNSLRAEDTAVYYCAKEPRSYWHGYGMDVWGQGTTVTVSS
VL: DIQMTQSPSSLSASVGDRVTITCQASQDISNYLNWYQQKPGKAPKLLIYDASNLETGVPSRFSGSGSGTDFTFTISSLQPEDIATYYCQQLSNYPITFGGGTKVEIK
notes: IgG
With B14, the Kd was found to be 8.36 nM in assay [1] and 0.952 nM in assay [2].

B15: SA-8-67 (antibody, V domains shown)
VH: EVQLVESGGGLVKPGGSLRLSCAASGFTFSSYSMHWVRQAPGKGLEWVSSISSSPSHIYYADSVKGRFTISRDNAKNSLYLQMNSLRAEDTAVYYCAKEPRSYWHGYGMDVWGQGTTVTVSS
VL: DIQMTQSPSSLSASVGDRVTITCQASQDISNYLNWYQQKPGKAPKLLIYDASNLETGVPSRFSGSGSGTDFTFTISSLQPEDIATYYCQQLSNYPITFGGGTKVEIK
notes: IgG
Turning to B15, the values for the equilibrium dissociation constant (Kd) in assay [1] and in assay [2] were 14.2 nM and 1.84 nM, respectively.
